According to US6890716B1, “Recombinant cell line and screening method for identifying agents which regulate apoptosis and tumor suppression” (Howard Hughes Medical Institute, priority 1998, dated 2005):

B1: pm1-BtfS: BtfS fused to the GAL-4 DNA binding domain in mammalian expression vector pm1 (protein)
chain: MKLLSSIEQACDICRLKKLKCSKEKPKCAKCLKNNWECRYSPKTKRSPLTRAHLTEVESRLERLEQLFLLIFPREDLDMILKMDSLQDIKALLTGLFVQDNVNKDAVTDRLASVETDMPLTLRQHRISATSSSEESSNKGQRQLTVSMGRANSRSHSSRSKSRSQSSSRSRSRSHSRKKRYRSRSRTYSRSRSRDRMYSRDYRRDYRNNRGMRRPYGYRGRGRGYYQGGGGRYHRGGYRPVWNRRHSRSPRRGRSRSRSPKRRSVSSRSRSRSRRSYRSSRSPRSSSSRSSSPYSKSPVSKRRGSQEKQTKKAEGEPQEESPLKSKSQEEPKDTFEHDPSESIDEFNKSSATSGDIWPGLSAYDNSPRSPHSPSPIATPPSQSSSCSDAPMLSTVHSAKNTPSQHSHSIQHSPERSGSGSVGNGSSRYSPSQNSPIHHIPSRRSPAKTIAPQNAPRDESRGRSSFYPDGGDQETAKTGKFLKRFTDEESRVFLLDRGNTRDKEASKEKGSEKGRAEGEWEDQEALDYFSDKESGKQKFNDSEGDDTEETEDYRQFRKSVLADQGKSFATASHRNTEEEGLKYKSKVSLKGNRESDGFREEKNYKLKETGYVVERPSTTKDKHKEEDKNSERITVKKETQSPEQVKSEKLKDLFDYSPPLHKNLDAREKSTFREESPLRIKMIASDSHRPEVKLKMAPVPLDDSNRPASLTKDRLLASTLVHSVKKEQEFRSIFDHIKLPQASKSTSESFIQHIVSLVHHVKEQYFKSAAMTLNERFTSYQKATEEHSTRQKSPEIHRRIDISPSTLRKHTRLAGEERVFKEENQKGDKKLRCDSADLRHDIDRRRKERSKERGDSKGSRESSGSRKQEKTPKDYKEYKSYKDDSKHKREQDHSRSSSSSASPSSPSSREEKESKKEREEEFKTHHEMKEYSGFAGVSRPRGTFFRIRGRGRARGVFAGTNTGPNNSNTTFQKRPKEEEWDPEYTPKSKKYFLHDDRDDGVDYWAKRGRGRGTFQRGRGRFNFKKSGSSPKWTHDKYQGDGIVEDEEETMENNEEKKDRRKEEKE
B2: ΔC210: Deletion mutant of BtfS, amino acids 1-210, cloned into pm1 (protein, UniProt Q9NYF8 1-210, looked up, fragment)
chain: MGRSNSRSHSSRSKSRSQSSSRSRSRSHSRKKRYSSRSRSRTYSRSRSRDRMYSRDYRRDYRNNRGMRRPYGYRGRGRGYYQGGGGRYHRGGYRPVWNRRHSRSPRRGRSRSRSPKRRSVSSQRSRSRSRRSYRSSRSPRSSSSRSSSPYSKSPVSKRRGSQEKQTKKAEGEPQEESPLKSKSQEEPKDTFEHDPSESIDEFNKSSATSG
modifications: BtfS isoform
notes: Deletion mutant of BtfS, amino acids 1-210, cloned into pm1

Experiments:
[1] = target: temperature sensitive p53 (val135) mutant expressed in p53A cells (UniProt P02340); assay: cell-based or functional assay
mdm2 in p53A cells = assay: Up-regulation of endogenous Mdm2 by indirect immunofluorescence; assay type: cell-based, rat; conditions: indirect immunofluorescence (FIG. 7)
Procedure: Cells were fixed in cold methanol prior to incubation with primary antibodies. Subsequent to several washes in PBS, cells were incubated with rhodamine-conjugated goat anti-mouse antibody or fluorescein-conjugated goat anti-rabbit antibody. Cells were then washed, mounted and analyzed by fluorescence microscopy using a Nikon FXA epifluorescence microscope.
The indicated amount of plasmid DNA was transfected by electroporation. After transfection, cells were incubated at 37.5° C. for 24 hours to recover, and were then shifted to 32° C. for 24 hours before analysis for viability by trypan blue staining and apoptotic morphology. […]
We next attempted to rescue p53A cells from apoptosis at the permissive temperature by ectopically expressing p300. Vector alone, wild-type p300 and a functional but truncated form of p300 with a deletion of E1A binding domain (Arany et al. 1994), were transiently transfected in p53A cells. p53-dependent apoptosis was examined at the permissive temperature 48 hours post-transfection. p53A cells transiently expressed the exogenous wild-type p300 and the E1A binding mutant form of p300, neither of which were detected in mock transfected cells. The up-regulation of mdm2 in p300 transfected cells was not detected by Western blot analysis above endogenous levels (FIG. 6) because the transfection efficiency was low in transient assays. […]

p53A cells = assay: Apoptotic morphology of transfected cells by indirect immunofluorescence at the permissive temperature; assay type: cell-based, rat; conditions: 24 μg plasmid DNA, permissive temperature (FIG. 9)
Procedure: Apoptotic morphology was assessed by scoring for cells that are positive by fluorescence microscopy and are rounded and non adherent.
In addition, we determined the percentage of cells with apoptotic morphology that were ectopically expressing wild-type p300 ectopically or the E1A-binding mutant of p300 following transient transfection with 24 μg of plasmid DNA. Apoptotic morphology was determined by counting cells that were rounded in shape and detaching from the dish. The percentage of cells with apoptotic morphology transiently expressing a control protein, a fragment of the lamin A protein (Rao et al. 1996), compared to p300 and mutant p300 transfected p53A cells at the permissive temperature was determined by indirect immunofluorescence.

[2] = tested on: GAL-4 luciferase reporter construct in HeLa cells; assay: Transcriptional reporter assay (GAL-4 luciferase reporter); assay type: cell-based
Procedure: Transcriptional reporter assays were performed as described previously (Catron, et al., 1995). HeLa cells were plated onto 60 mm tissue culture dishes and grown to 50-75% confluency. The cells were then transfected with 2.5 μg of a GAL-4 luciferase reporter construct (kindly provided by Dr. C. Abate-Shen, Center for Advanced Biotechnology and Medicine, Piscataway, N.J.) along with 2.5 μg of both a pm1 vector (BtfS, BtfS-N552 or BtfS-C210) and a bcl-2 family gene (pCMV-E1B 19K, pcDNA3-Bcl-2, or pcDNA3-Flag-Bcl-xL). DNA concentrations were kept constant using appropriate empty vectors, either pm1 or pcDNA3. The cells were transfected using SuperFect (Qiagen, Valencia, Calif.) according to the manufacturer's specifications and harvested 24 hours post-transfection. Expression of mutant and wild-type BtfS proteins were verified by immunofluorescence using an antibody against the GAL-4 DNA-binding domain (Clontech, San Fransisco, Calif.). Luciferase activity was determined using the Luciferase Assay System (Promega Corp., Madison, Wis.) measured in a scintillation counter, and then normalized for protein concentrations measured by a Bradford assay. […]
To address these issues, BtfS was cloned into a mammalian expression vector (pm1) containing the GAL-4 DNA binding domain. Transcriptional activity was monitored using a reporter construct containing GAL-4 promoter sites. […]

| Molecule | percentage of apoptotic cells (morphology, indirect immunofluorescence) among p53A cells expressing the protein [1] [%] | transfected cells showing up-regulation of Mdm2 (mdm2 in p53A cells) [%] | percentage of expressing cells with apoptotic morphology (p53A cells) [%] | further results |
| --- | --- | --- | --- | --- |
| wild-type mdm2 (pCOC-X2 / pCMVβ-X2) (from UniProt P23804 1-489) | 10 |  |  |  |
| mutant p300: Functional but truncated p300 with deletion of the E1A binding domain (pCMVβp300Δ30) |  | 90 | 8 |  |
| wild-type p300: Transcriptional coactivator p300, HA-tagged, expressed from pCMVβp300 |  | 90 | 4 |  |
| mutant mdm2 with deletion of the N-terminal p53-binding domain (pCOC-ΔXM / pCMVβ-ΔXM) (from UniProt P23804 102-489) | 30 |  |  |  |
| B1 |  |  |  | decrease in transcription compared to empty pm1 vector control ([2]; 24 hours post-transfection (FIG. 27)): ~10 fold |
| B2 |  |  |  | ability to repress transcription (in words) ([2]; pm1 GAL-4 DNA-binding domain fusions (FIG. 27)): sufficient for repression and nearly as potent as full-length BtfS |
